Kd data for 2 molecules are collected here from publication PMC13750308 (2026).

One may read the Kd as a measure of binding affinity in units of concentration.

Assay [1] concerns the target Centrobin peptide motif (Homo sapiens) (UniProt Q8N137). As to conditions: cited from earlier work.
The target of a further assay is T1, Cep192 IDR+ASH8 (Homo sapiens, UniProt Q8TEP8).
T1 chain: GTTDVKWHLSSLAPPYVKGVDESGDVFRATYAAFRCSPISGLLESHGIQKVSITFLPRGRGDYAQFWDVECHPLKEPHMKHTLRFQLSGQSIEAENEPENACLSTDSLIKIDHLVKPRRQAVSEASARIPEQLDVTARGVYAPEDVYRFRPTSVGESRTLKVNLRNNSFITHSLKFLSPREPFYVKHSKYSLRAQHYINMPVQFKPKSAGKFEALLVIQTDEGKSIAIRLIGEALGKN
The assay can be described thus: GFP-Trap bead supernatant depletion pull-down with western blot. A general note: A western blot detects proteins with antibodies after separation by electrophoresis.

TRIM37 MATH (from UniProt O94972): in assay [1], the Kd is 14 µM.

B1: TRIM37 (protein)
chain: MDEQSVESIAEVFRCFICMEKLRDARLCPHCSKLCCFSCIRRWLTEQRAQCPHCRAPLQLRELVNCRWAEEVTQQLDTLQLCSLTKHEENEKDKCENHHEKLSVFCWTCKKCICHQCALWGGMHGGHTFKPLAEIYEQHVTKVNEEVAKLRRRLMELISLVQEVERNVEAVRNAKDERVREIRNAVEMMIARLDTQLKNKLITLMGQKTSLTQETELLESLLQEVEHQLRSCSKSELISKSSEILMMFQQVHRKPMASFVTTPVPPDFTSELVPSYDSATFVLENFSTLRQRADPVYSPPLQVSGLCWRLKVYPDGNGVVRGYYLSVFLELSAGLPETSKYEYRVEMVHQSCNDPTKNIIREFASDFEVGECWGYNRFFRLDLLANEGYLNPQNDTVILRFQVRSPTFFQKSRDQHWYITQLEAAQTSYIQQINNLKERLTIELSRTQKSRDLSPPDNHLSPQNDDALETRAKKSACSDMLLEGGPTTASVREAKEDEEDEEKIQNEDYHHELSDGDLDLDLVYEDEVNQLDGSSSSASSTATSNTEENDIDEETMSGENDVEYNNMELEEGELMEDAAAAGPAGSSHGYVGSSSRISRRTHLCSAATSSLLDIDPLILIHLLDLKDRSSIENLWGLQPRPPASLLQPTASYSRKDKDQRKQQAMWRVPSDLKMLKRLKTQMAEVRCMKTDVKNTLSEIKSSSAASGDMQTSLFSADQAALAACGTENSGRLQDLGMELLAKSSVANCYIRNSTNKKSNSPKPARSSVAGSLSLRRAVDPGENSRSKGDCQTLSEGSPGSSQSGSRHSSPRALIHGSIGDILPKTEDRQCKALDSDAVVVAVFSGLPAVEKRRKMVTLGANAKGGHLEGLQMTDLENNSETGELQPVLPEGASAAPEEGMSSDSDIECDTENEEQEEHTSVGGFHDSFMVMTQPPDEDTHSSFPDGEQIGPEDLSFNTDENSGR
In the assay with Cep192 IDR+ASH8, B1 displayed a Kd of 0.075 µM.
